Measurements from patent publication US20260347481 (published 2026).
Non-standard residues stand in square brackets, D forms with d. No end group written: not given here. *: point of attachment. Biotin = O=C1N[C@H]2[C@H](CS[C@H]2CCCCC(=O)*)N1; Arg(Me2a) = CN(C)C(=N)NCCC[C@H](N)C(=O)O

B1: Example 3 (antibody, V domains shown)
VH: QVQLQESGPGLVKPSGTLSLTCAVSGDSISSSSYYWGWIRQPPGKGLEWIGSIYYSGSTYYNPSLKSRVTISVDTSKNQFSLKLSSVTAADTAVYYCAREWNGLDVWGKGTLVTVSS
VL: LNFMLTQPHSVSESPGKTVTISCTGSSGSIASNYVQWYQQRPGSAPTTVIYEDNQRPSGVPDRFSGSIDSSSNSASLTISGLKTEDEADYYCQSYDRGNTEVMFGGGTKVTVLG
B2: Example 2 (antibody, V domains shown)
VH: QVQLQESGPGLVKPSETLSLTCSVSGDSITRSGYYWAWVRQSPGKGLEYIGSISYSGTTYYNPSLKSRVTISVDTSKNQFSLKLSSVTAADTAVYYCAREWNGLDVWGKGTMVTVSS
VL: LNFMLTQPHSVSESPGKTVTISCTRSSGSIASNYVQWYQQRPGSSPTTVIYEDNQRPFGVPDRFSGSIDSSSNSASLTISGLKTEDEADYYCQSYDSGHQIFGGGTKLTVLG

Target: T1, Target peptide (meEGFR R198/R200) (human, cysteine pairing not given here)
T1 chain: K(Biotin)QCSG[Arg(Me2a)]C[Arg(Me2a)]GKSPSDC-NH2

| Binder | EC50 [nM] |
| --- | --- |
| B1 | 0.0258 |
| B2 | 0.0359 |
